Measured values published in publication PMC3470569, “Probing Subunit-Subunit Interactions in the Yeast Vacuolar ATPase by Peptide Arrays” (PLoS ONE, 2012).
Ends that are not written are not given here. cellulose = not defined here

Key:
Assay in all cases: peptide or protein array; 20-mer peptides linked at their C-terminal end to cellulose and spotted in duplicate on glass slides; blocked in 2% nonfat milk; purified probe at 4 µM in TBS for 1 hour at 4°C; bound probe detected through MBP or FLAG with HRP-coupled antibody (chemiluminescence); hits by ANOVA (p 0.05, Bonferroni) and HCL in MeV, score of at least 1 in 75% of the spots
Details in all cases: both partners purified
[1] = target: T1, subunit E (Vma4p), N-terminal MBP fusion (S. cerevisiae, UniProt P22203 1-233)
T1 construct: V-ATPase subunit E (Vma4p), S. cerevisiae, 233 amino acids; also called MBP-E; source: E. coli, purified (amylose column); not shown: MBP, N-terminal, kept
T1 sequence (looked up): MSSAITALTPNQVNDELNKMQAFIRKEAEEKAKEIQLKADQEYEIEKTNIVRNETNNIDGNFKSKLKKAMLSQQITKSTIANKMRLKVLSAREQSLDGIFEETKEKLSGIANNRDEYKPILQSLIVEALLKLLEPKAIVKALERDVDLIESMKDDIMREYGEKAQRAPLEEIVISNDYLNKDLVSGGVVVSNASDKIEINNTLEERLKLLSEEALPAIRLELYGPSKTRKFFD

[2] = target: T2, EG heterodimer (untagged subunit E with FLAG-tagged subunit G) (S. cerevisiae, UniProt P22203 1-233; P48836 1-114)
T2 construct: V-ATPase subunit E (Vma4p), S. cerevisiae, tagless; V-ATPase subunit G (Vma10p), S. cerevisiae; also called EG-FLAG; source: E. coli, co-expressed from one bicistronic plasmid, purified (amylose, PreScission cleavage of MBP, DEAE, amylose); not shown: MBP, N-terminal, cleaved; FLAG, N-terminal, kept
T2 sequence (looked up) 1: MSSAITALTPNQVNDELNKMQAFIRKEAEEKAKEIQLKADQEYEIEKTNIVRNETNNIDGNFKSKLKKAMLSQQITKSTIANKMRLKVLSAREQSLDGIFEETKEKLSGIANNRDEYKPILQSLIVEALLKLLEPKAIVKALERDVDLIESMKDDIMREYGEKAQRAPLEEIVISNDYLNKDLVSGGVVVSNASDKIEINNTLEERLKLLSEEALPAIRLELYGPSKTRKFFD
T2 sequence (looked up) 2: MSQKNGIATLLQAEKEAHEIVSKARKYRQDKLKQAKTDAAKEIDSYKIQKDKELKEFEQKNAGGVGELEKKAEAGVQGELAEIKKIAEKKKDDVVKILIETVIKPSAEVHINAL

[3] = target: T3, full-length subunit H (Vma13p), N-terminal MBP fusion (S. cerevisiae, UniProt P41807 1-478)
T3 construct: V-ATPase subunit H (Vma13p), S. cerevisiae, 478 amino acids; Construct provided by the laboratory of Dr. Patricia Kane; also called MBP-H; source: E. coli, purified (amylose column; ultrafiltration or size exclusion chromatography); not shown: MBP, N-terminal, kept
T3 sequence (looked up): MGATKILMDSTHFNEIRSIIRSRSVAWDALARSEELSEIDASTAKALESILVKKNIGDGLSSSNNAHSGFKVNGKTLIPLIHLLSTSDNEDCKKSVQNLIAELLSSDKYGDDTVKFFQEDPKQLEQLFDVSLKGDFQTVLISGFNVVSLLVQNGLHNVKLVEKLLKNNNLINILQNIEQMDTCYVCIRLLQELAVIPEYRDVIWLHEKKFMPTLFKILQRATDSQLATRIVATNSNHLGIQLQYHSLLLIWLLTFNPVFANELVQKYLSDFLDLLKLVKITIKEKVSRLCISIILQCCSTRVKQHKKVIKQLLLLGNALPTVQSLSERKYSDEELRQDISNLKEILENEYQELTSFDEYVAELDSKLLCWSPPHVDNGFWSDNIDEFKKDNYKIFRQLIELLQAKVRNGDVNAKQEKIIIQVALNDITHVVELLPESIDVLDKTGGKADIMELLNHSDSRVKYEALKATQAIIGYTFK

[4] = target: T4, subunit G (Vma10p) with FLAG tag (S. cerevisiae, UniProt P48836 1-114)
T4 construct: V-ATPase subunit G (Vma10p), S. cerevisiae, 114 amino acids; also called G-FLAG; FLAG-G; source: E. coli, from the bicistronic MBP-FLAG-G / E construct, purified (amylose, PreScission cleavage of MBP, DEAE, amylose); not shown: MBP, N-terminal, cleaved
T4 sequence (looked up): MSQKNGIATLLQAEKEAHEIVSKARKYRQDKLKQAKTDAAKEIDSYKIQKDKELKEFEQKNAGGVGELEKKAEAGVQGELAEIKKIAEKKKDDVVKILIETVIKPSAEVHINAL

[5] = target: T5, C-terminal domain of subunit H (HCT), N-terminal MBP fusion (S. cerevisiae, UniProt P41807 353-478)
T5 construct: V-ATPase subunit H (Vma13p), S. cerevisiae, C-terminal globular domain 353-478 (126 amino acids); Construct provided by the laboratory of Dr. Patricia Kane; also called MBP-HCT; source: E. coli, purified (amylose column; ultrafiltration or size exclusion chromatography); not shown: MBP, N-terminal, kept
T5 sequence (looked up): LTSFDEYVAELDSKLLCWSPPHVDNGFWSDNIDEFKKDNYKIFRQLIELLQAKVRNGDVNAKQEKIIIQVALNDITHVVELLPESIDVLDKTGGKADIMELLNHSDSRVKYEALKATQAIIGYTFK

B1: a(281-300) (peptide, UniProt P32563 281-300, looked up)
peptide: LSDLYTVLKTTSTTLESELY-cellulose
modifications: reading uncertain
notes: source: synthetic peptide, spotted on glass slide array (Intavis)
B1: binds [1]; binds [2].

B2: H(331) (peptide, UniProt P41807 331-350, looked up)
peptide: SDEELRQDISNLKEILENEY-cellulose
modifications: reading uncertain
notes: V-ATPase subunit H (Vma13p), S. cerevisiae; source: synthetic peptide, spotted on glass slide array (Intavis)
B2: binds [1].

B3: d(21-40) (peptide, UniProt P32366 21-40, looked up)
peptide: RNGLLSNNQYINLTQCDTLE-cellulose
modifications: reading uncertain
notes: V-ATPase Vo subunit d, S. cerevisiae, residues 21-40; source: synthetic peptide, spotted on glass slide array (Intavis)
B3: binds [3]; binds [1].

B4: B(349-368) (peptide, UniProt P16140 349-368, looked up)
peptide: LTGYITEGQIFVDRQLHNKG-cellulose
modifications: reading uncertain
notes: as for B1
B4: binds [4]; binds [3].

B5: H(91-110) (peptide, UniProt P41807 91-110, looked up)
peptide: DCKKSVQNLIAELLSSDKYG-cellulose
modifications: reading uncertain
notes: V-ATPase subunit H (Vma13p), S. cerevisiae, residues 91-110; source: synthetic peptide, spotted on glass slide array (Intavis)
B5: binds [2].

B6: C(321-340) (peptide, UniProt P31412 321-340, looked up)
peptide: LPPHFNIKIIAVPPKNLSKC-cellulose
modifications: reading uncertain
notes: as for B1
B6: binds [3]; binds [5].

B7: D(161-180) (peptide, UniProt P32610 161-180, looked up)
peptide: EVIKVTNRRVNAIEHVIIPR-cellulose
modifications: reading uncertain
notes: as for B1
B7: binds [4].

B8: d(261-280) (peptide, UniProt P32366 261-280, looked up)
peptide: DFEGVRAALANVYEYRGFLE-cellulose
modifications: reading uncertain
notes: as for B1
B8: binds [1].

B9: a(131-150) (peptide, UniProt P32563 131-150, looked up)
peptide: IEVQKNDLEQYRFILQSGDE-cellulose
modifications: reading uncertain
notes: as for B1
B9: binds [1].

B10: D(181-200) (peptide, UniProt P32610 181-200, looked up)
peptide: TENTIAYINSELDELDREEF-cellulose
modifications: reading uncertain
notes: as for B1
B10: binds [1].

B11: a(521-540) (peptide, UniProt P32563 521-540, looked up)
peptide: AWHGTENALLFSNSYKMKLS-cellulose
modifications: reading uncertain
notes: as for B1
B11: binds [5].

B12: d(131-150) (peptide, UniProt P32366 131-150, looked up)
peptide: GWFDTLPTLSVATDLESLYE-cellulose
modifications: reading uncertain
notes: as for B1
B12: binds [3]; binds [1].

B13: E(51-70) (peptide, UniProt P22203 51-70, looked up)
peptide: VRNETNNIDGNFKSKLKKAM-cellulose
modifications: reading uncertain
notes: V-ATPase subunit E (Vma4p), S. cerevisiae, residues 51-70; source: synthetic peptide, spotted on glass slide array (Intavis)
B13: binds [2].

B14: a(291-310) (peptide, UniProt P32563 291-310, looked up)
peptide: TSTTLESELYAIAKELDSWF-cellulose
modifications: reading uncertain
notes: as for B1
B14: binds [2].

B15: H(271-290) (peptide, UniProt P41807 271-290, looked up)
peptide: FLDLLKLVKITIKEKVSRLC-cellulose
modifications: reading uncertain
notes: as for B1
B15: binds [4]; binds [3].

B16: F(91-110) (peptide, UniProt P39111 91-110, looked up)
peptide: ILEIPSKDHPYDPEKDSVLK-cellulose
modifications: reading uncertain
notes: V-ATPase subunit F, S. cerevisiae, residues 91-110; source: synthetic peptide, spotted on glass slide array (Intavis)
B16: binds [4]; binds [3]; binds [2].

B17: a(371-390) (peptide, UniProt P32563 371-390, looked up)
peptide: LDTNHTPPTFHRTNKFTAGF-cellulose
modifications: reading uncertain
notes: as for B1
B17: binds [4]; binds [5].

B18: a(51-70) (peptide, UniProt P32563 51-70, looked up)
peptide: FQRTFVNEIRRLDNVERQYR-cellulose
modifications: reading uncertain
notes: V-ATPase Vo subunit a (gene Vph1), S. cerevisiae, residues 51-70; source: synthetic peptide, spotted on glass slide array (Intavis)
B18: binds [3]; binds [5].

B19: a(41-60) (peptide, UniProt P32563 41-60, looked up)
peptide: FRDLNSKVRAFQRTFVNEIR-cellulose
modifications: reading uncertain
notes: V-ATPase Vo subunit a (gene Vph1), S. cerevisiae, residues 41-60; source: synthetic peptide, spotted on glass slide array (Intavis)
B19: binds [3]; binds [5].

B20: d(181-200) (peptide, UniProt P32366 181-200, looked up)
peptide: RNKLYKAYLEDFYNFVTEEI-cellulose
modifications: reading uncertain
notes: as for B1
B20: binds [1].

B21: H(221-240) (peptide, UniProt P41807 221-240, looked up)
peptide: ATDSQLATRIVATNSNHLGI-cellulose
modifications: reading uncertain
notes: as for B1
B21: binds [4]; binds [5].

B22: F(41-60) (peptide, UniProt P39111 41-60, looked up)
peptide: QEGKTTKEEITDKFNHFTEE-cellulose
modifications: reading uncertain
notes: V-ATPase subunit F, S. cerevisiae, residues 41-60; source: synthetic peptide, spotted on glass slide array (Intavis)
B22: binds [3]; binds [1].

B23: d(51-70) (peptide, UniProt P32366 51-70, looked up)
peptide: YGNFLSSVSSESLTTSLIQE-cellulose
modifications: reading uncertain
notes: V-ATPase Vo subunit d, S. cerevisiae, residues 51-70; source: synthetic peptide, spotted on glass slide array (Intavis)
B23: binds [3]; binds [1].

B24: G(71-90) (peptide, UniProt P48836 71-90, looked up)
peptide: KAEAGVQGELAEIKKIAEKK-cellulose
modifications: reading uncertain
notes: V-ATPase subunit G (Vma10p), S. cerevisiae, residues 71-90; source: synthetic peptide, spotted on glass slide array (Intavis)
B24: binds [3]; binds [1].

B25: a(681-700) (peptide, UniProt P32563 681-700, looked up)
peptide: EAQQLISAMDADDAEEEEVG-cellulose
modifications: reading uncertain
notes: as for B1
B25: binds [1].

B26: B(421) (peptide, UniProt P16140 421-440, looked up)
peptide: GEEALSIEDKLSLEFLEKFE-cellulose
modifications: reading uncertain
notes: V-ATPase subunit B, S. cerevisiae; source: synthetic peptide, spotted on glass slide array (Intavis)
B26: binds [1].

B27: H(181-200) (peptide, UniProt P41807 181-200, looked up)
peptide: DTCYVCIRLLQELAVIPEYR-cellulose
modifications: cysteine pairing not given here; reading uncertain
notes: as for B1
B27: binds [2].

B28: a(151-170) (peptide, UniProt P32563 151-170, looked up)
peptide: FFLKGDNTDSTSYMDEDMID-cellulose
modifications: reading uncertain
notes: as for B1
B28: binds [1].
